Drawing on paper PMC8682993 (Science Advances, 2021), this text covers binding result and Kd for three molecules.

One may read the Kd as a measure of binding affinity in units of concentration. A low value points to a tighter complex.

Where “and” joins values, the source holds several entries; their conditions need not be identical. Equal entries are not always repeated.

Test [1] addresses T1, full-length yeast Hsp90 (Hsp82) (yeast, UniProt P02829 1-709). The test is described as follows: AUC.
The target in test [2] is T1, full-length yeast Hsp90 (Hsp82). Description: fluorescence polarisation. For orientation: In fluorescence polarisation assays a small probe gives low polarisation when free and higher when bound to something large.

T1 sequence (P02829 whole entry): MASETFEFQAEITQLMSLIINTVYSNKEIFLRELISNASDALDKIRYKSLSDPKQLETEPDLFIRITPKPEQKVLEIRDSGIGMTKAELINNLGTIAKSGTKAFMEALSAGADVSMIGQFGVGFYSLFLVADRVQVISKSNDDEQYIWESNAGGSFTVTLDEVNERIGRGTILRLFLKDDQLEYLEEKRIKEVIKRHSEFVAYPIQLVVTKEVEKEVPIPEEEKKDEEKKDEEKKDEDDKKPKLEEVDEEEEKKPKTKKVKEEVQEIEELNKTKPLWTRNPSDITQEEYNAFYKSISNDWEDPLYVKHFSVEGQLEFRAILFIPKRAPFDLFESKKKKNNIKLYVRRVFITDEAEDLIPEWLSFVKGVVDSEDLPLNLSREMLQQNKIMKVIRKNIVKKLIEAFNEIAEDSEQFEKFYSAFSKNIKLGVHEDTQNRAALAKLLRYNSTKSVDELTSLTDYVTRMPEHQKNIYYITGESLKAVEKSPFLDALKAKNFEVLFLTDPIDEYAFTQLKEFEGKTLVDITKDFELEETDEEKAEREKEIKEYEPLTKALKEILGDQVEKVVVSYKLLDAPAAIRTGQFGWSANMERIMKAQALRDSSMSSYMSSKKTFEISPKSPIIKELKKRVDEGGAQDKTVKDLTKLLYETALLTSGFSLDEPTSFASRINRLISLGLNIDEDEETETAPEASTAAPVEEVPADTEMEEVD

B1: MR-LBD (C805S/A841C) (domain or fragment)
chain: APTKEPSVNSALVPQLTSITHALTPSPAMILENIEPETVYAGYDNSKPDTAESLLSTLNRLAAKQMIQVVKWAKVLPGFKNLPLEDQITLIQYSWMSLSSFALSWRSYKHTNSQLLYFAPDLVFNEEKMHQSCMYELCQGMRQISLQFVRLQLTFEEYSIMKVLLLLSTVPKDGLKSQAAFEEMRTNYIKELRKMVTKCPNSSGQSWQRFYQLTKLLDSMHDLVSDLLEFCFYTFRESQALKVEFPAMLVEIITDQLPKVESGNAKPLYFHRK
Consider B1, for which, in test [1], the binding result was “binds”.

B2: p53-DBD (C124S/C229S/C277S) (domain or fragment)
chain: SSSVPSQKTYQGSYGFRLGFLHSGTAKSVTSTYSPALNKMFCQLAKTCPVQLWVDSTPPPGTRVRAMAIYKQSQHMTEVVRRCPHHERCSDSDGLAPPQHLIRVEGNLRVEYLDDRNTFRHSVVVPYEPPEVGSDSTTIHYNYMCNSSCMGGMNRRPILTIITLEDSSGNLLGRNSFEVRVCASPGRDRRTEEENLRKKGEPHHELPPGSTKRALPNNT
Take B2: the binding result in test [1] was “binds”.

B3: rat MR-LBD (amino acids 709 to 981; C805S) (domain or fragment)
chain: APTKEPSVNSALVPQLTSITHALTPSPAMILENIEPETVYAGYDNSKPDTAESLLSTLNRLAAKQMIQVVKWAKVLPGFKNLPLEDQITLIQYSWMSLSSFALSWRSYKHTNSQLLYFAPDLVFNEEKMHQSAMYELCQGMRQISLQFVRLQLTFEEYSIMKVLLLLSTVPKDGLKSQAAFEEMRTNYIKELRKMVTKCPNSSGQSWQRFYQLTKLLDSMHDLVSDLLEFCFYTFRESQALKVEFPAMLVEIITDQLPKVESGNAKPLYFHRK
modifications: ATTO 488 maleimide, randomly on cysteine residues (anisotropy and AUC)
Turning to B3, in test [2], the Kd was 5.7 µM and 5.3 µM and 2.2 µM and 1.9 µM.
